Source: patent publication US20090130676

Test system: His6-aptamers (peptide aptamers of FIGS. 4A and 4B, purified)

Cdk2/Cyclin E kinase
phosphorylation of Histone H1 by Cdk2/Cyclin E kinase: All tested aptamers were able to inhibit phosphorylation of Histone H1 by Cdk2/Cyclin E kinase
